The target in experiment [1] is C1q (Homo sapiens) (UniProt P02745). Conditions: cited from earlier work.
The target of experiment [2] is complement protein C1q (human) (UniProt P02745). In words: SPR; N-glycosylation site mutants of SR-F1(20-421) with C1q (Figures S5A-C), n = 2; which partner was immobilised is not told in the text shown; apparent affinity. For orientation: SPR reads the build-up and loss of mass on a sensor chip optically.
In experiment [3] the target is C1q (Homo sapiens) (UniProt P02745). Conditions: cited from earlier work. The source holds these as a separate data set.

Like-named read-outs stand apart in the source and are kept apart here.

Sequence of C1q (Homo sapiens) (P02745 23-245, chain 1 of 3): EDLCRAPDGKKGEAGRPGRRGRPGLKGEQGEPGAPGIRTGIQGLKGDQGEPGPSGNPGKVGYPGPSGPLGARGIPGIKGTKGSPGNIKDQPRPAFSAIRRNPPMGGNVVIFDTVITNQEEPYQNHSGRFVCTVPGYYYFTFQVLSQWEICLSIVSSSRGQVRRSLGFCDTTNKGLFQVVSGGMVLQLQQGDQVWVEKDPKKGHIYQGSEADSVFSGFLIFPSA
Sequence of C1q (Homo sapiens) (P02746 28-253, chain 2 of 3, further chain): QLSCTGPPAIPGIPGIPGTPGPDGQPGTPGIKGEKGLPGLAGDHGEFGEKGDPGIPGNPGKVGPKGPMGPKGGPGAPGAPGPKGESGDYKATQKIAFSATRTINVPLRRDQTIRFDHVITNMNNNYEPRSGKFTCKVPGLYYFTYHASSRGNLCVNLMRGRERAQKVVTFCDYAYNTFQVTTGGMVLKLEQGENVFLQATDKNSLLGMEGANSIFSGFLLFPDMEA
Sequence of C1q (Homo sapiens) (P02747 29-245, chain 3 of 3, further chain): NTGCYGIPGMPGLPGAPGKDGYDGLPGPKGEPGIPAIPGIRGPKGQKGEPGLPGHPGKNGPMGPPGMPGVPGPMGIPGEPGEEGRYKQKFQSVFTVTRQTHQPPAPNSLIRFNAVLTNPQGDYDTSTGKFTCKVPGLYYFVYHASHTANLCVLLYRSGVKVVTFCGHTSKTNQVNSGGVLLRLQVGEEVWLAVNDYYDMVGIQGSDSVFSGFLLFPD
Sequence of calreticulin (P27797 18-417): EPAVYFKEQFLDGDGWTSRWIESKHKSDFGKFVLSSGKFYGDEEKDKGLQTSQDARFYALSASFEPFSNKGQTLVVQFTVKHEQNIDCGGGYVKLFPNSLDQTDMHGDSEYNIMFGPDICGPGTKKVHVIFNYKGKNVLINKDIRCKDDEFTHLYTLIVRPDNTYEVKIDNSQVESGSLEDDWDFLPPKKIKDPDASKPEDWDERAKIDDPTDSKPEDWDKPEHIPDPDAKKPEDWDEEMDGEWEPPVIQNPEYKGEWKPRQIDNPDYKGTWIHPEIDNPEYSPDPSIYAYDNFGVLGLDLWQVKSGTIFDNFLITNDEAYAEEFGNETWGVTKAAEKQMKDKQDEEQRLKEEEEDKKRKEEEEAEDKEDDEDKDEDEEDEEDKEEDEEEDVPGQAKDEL
Sequence of SR-F1 ECD (Q14162 20-421): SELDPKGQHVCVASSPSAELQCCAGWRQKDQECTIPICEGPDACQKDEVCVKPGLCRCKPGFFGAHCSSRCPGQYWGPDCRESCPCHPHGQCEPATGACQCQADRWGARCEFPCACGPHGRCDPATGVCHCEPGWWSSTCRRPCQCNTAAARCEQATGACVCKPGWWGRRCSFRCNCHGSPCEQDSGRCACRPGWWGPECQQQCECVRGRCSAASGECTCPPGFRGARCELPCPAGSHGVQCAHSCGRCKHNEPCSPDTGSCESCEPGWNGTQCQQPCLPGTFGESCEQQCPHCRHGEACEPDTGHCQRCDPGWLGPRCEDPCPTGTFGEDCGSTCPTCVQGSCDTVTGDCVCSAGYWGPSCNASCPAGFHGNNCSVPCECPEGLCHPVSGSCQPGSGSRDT
Sequence of complement protein C1q (human) (P02745 23-245, chain 1 of 3): as the sequence (P02745 23-245, chain 1 of 3) above
Sequence of complement protein C1q (human) (P02746 28-253, chain 2 of 3, further chain): as the sequence (P02746 28-253, chain 2 of 3, further chain) above
Sequence of complement protein C1q (human) (P02747 29-245, chain 3 of 3, further chain): as the sequence (P02747 29-245, chain 3 of 3, further chain) above

Regarding SR-F1 ECD (from UniProt Q14162), in experiment [1], the Kd is 124 nM.

Take “SR-F1(20-421) N289Q (from UniProt Q14162 20-421) (domain or fragment)”: in experiment [2], the Kd was 581 nM.

As to calreticulin (from UniProt P27797), the Kd in experiment [3] was 120 nM.

The values are drawn from paper PMC7137648.
